In US20220088279A1 (GAMBRO LUNDIA, published 2022):

Target: T1, CD177 (UniProt Q8N6Q3 22-408, limits assumed)
T1 construct: Immobilized on a GLH sensor chip by amine chemistry for SPR; also called neutrophil receptor CD177
T1 sequence (looked up): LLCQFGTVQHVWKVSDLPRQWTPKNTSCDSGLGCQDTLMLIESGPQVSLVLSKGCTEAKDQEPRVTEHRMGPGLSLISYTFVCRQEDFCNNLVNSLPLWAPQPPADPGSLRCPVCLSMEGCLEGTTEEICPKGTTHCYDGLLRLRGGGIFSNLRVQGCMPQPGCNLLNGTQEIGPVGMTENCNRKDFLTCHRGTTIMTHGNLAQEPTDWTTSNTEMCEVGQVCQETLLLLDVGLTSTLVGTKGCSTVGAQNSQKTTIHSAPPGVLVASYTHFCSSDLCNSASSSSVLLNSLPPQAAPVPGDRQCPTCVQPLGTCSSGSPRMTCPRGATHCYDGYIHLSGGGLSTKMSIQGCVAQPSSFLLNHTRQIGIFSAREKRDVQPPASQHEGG
Test: SPR (ProteOn XPR36), CD177 immobilized on GLH chip by amine chemistry, PR3 variant in a concentration series
Protocol: FIG. 2: Comparison of wtPR3 and monomeric PR3 properties by SPR and ELISA. […] The antibodies each recognize distinct, non-overlapping epitopes on PR3. wtPR3 (left bar) and the monomeric Trp222Ala PR3 variant (right bar) are equally well recognized by the antibodies.
Experiments were performed on a ProteOn XPR36 instrument (BioRad) with proteins immobilized to GLH sensor chips (BioRad) using standard amine chemistry. The binding interaction of a concentration series of soluble monomeric Trp222Ala PR3 variant with immobilized CD177 was assessed (FIG. 2A).

Kd: 57 nM
B1: monomeric Trp222Ala PR3 variant (enzyme)
chain: IVGGHEAQPHSRPYMASLQMRGNPGSHFCGGTLIHPSFVLTAAHCLRDIPQRLVNVVLGAHNVRTQEPTQQHFSVAQVFLNNYDAENKLNDVLLIQLSSPANLSASVATVQLPQQDQPVPHGTQCLAMGWGRVGAHDPPAQVLQELNVTVVTFFCRPHNICTFVPRRKAGICFGDSGGPLICDGIIQGIDSFVIAGCATRLFPDFFTRVALYVDWIRSTLRRVEAKGRP
notes: Made as a C-terminal fusion with human Ig1 Fc and secreted through an N-terminal Ig1 signal peptide; The propeptides aa 26-27 and aa 249-256 may also be absent, and residues left by the TEV site may remain at the C-terminus; also called monomeric PR3
